In general, Kd refers to the concentration at which binding is half-saturated. High values mean lower affinity, low ones higher affinity. A word on the koff: it is a measure of how fast the partners let go of each other. Low values mean slow dissociation, high ones fast dissociation. One may read the kon as the rate constant with which the complex forms. Higher therefore signals fast association. In general, IC50 refers to the concentration that inhibits the measured activity by half. A higher IC50 goes with weaker potency.

We go through 13 molecules from patent US20240109962A1 (SPARX BIOSCIENCE, published 2024).

Numbering of substitutions follows the chain as printed. Where two headings read alike, the source gives them in different places.

One experiment has as its target T1, LILRB3-His.
T1 construct: also called His-tagged LILRB3; recombinant LILRB3 protein
Kind of experiment: ELISA on recombinant His-tagged protein, OD450.

The target of experiment [1] is T2, human LILRB3 expressed on 293T cells (human, UniProt O75022 24-631).
T2 construct: whole, on cells
Briefly: cell ELISA on fixed 293T transfectants, OD490. The method, then: The cells were then immobilized with glutaraldehyde in the presence of 5% defatted milk at room temperature for 2 hours. An anti-LILRB2 antibody (2 μg/ml) was added to each well and incubated at room temperature for 2 hours. An HRP-labelled goat anti-mouse secondary antibody was then added into each well and incubated at room temperature for one hour. An HRP substrate, o-phenylenediamine dihydrochloride (OPD) was then added to each well. The plate was incubated at room temperature for 15 min to allow color development and OD₄₉₀ values were determined.
For orientation: In an ELISA, binding on a coated surface is turned into a signal by an enzyme label.

Experiment [2] concerns the target LILRB2 antigen of the ELISA of Table 5 (format not specified) (UniProt Q8N423 22-460, limits assumed). Briefly: ELISA, antibody titration.
The target in experiment [3] is T3, human LILRB1 expressed on 293T cells (human, UniProt Q8NHL6 24-650).
T3 construct: whole, on cells
Kind of experiment: flow cytometry on 293T transfectants, MFI. The method, then:
(§1) The cells were then immobilized with glutaraldehyde in the presence of 5% defatted milk at room temperature for 2 hours. An anti-LILRB2 antibody (5 μg/ml) was added to each well and incubated at room temperature for 1 hours. An Alex Flour®-labelled goat anti-mouse secondary antibody (1:2,000 dilution) was then added into each well and incubated at room temperature for 30′. The cells were washed twice with PBS after the staining. Fluorescence intensities (MFI) were measured.
A general note: Flow cytometry measures light scatter and fluorescence of single cells or particles in a stream.

Experiment [4] has as its target T2, human LILRB3 expressed on 293T cells. Kind of experiment: flow cytometry on 293T transfectants, MFI. The method, then:
as §1

For experiment [5], the target named is T4, His-tagged human LILRB2 polypeptide (human, UniProt Q8N423 22-460).
T4 construct: SPR analyte; also called His-tagged human LILBR2 polypeptide; not shown: His tag
Kind of experiment: SPR, antibody on CM5 chip, His-LILRB2 analyte, 1:1 model. The method, then: Surface plasmon resonance (SPR) was used to examine binding activities of exemplary anti-LILBR2 antibodies disclosed herein. Briefly, the anti-LILBR2 antibody was diluted in a coating buffer to a concentration of 30 μg/ml, loaded onto CM5 chips at 10 μl/min to allow coating of the antibody on the surface of the CM5 chip. […] Binding affinity was measured based on the 1:1 binding model.
A general note: Surface plasmon resonance follows binding to a sensor surface in real time, without labels.

For experiment [6], the target named is T5, human LILRB2 expressed on cells (293T-LILRB2, CHO-K1-LILRB2) (human, UniProt Q8N423 22-597).
T5 construct: whole, on cells; the cell line is named under assay; also called HEK293T-LILRB2
Kind of experiment: flow cytometry, blockade of His-tagged HLA-G tetramer binding to 293T-LILRB2 cells; fit table under the graph. The method, then: Serial diluted humanized LILRB2 antibodies were then added to the mixture and incubated at room temperature for another 45 minutes. The binding of HLA-G/LILRB2 was detected afterwards using a secondary PE-labeled anti-His tag antibody via flow cytometry.

Experiment [7] deals with T5, human LILRB2 expressed on cells …. Kind of experiment: flow cytometry on 293T-LILRB2 cells, serial dilution, APC anti-human IgG; fit table under the graph. The text has this:
(§2) The cells were washed and then subject to flow cytometry to measure levels of fluorescent signals.

Experiment [8] shares this target. The description is as above.
Excerpt: as §2
This is another data set of the same source.

For the next experiment, the target named is T6, LILRB1-His.
T6 construct: also called His-tagged LILRB1; recombinant LILRB1 protein
Kind of experiment: ELISA on recombinant His-tagged protein, OD450.

Experiment [9] addresses T5, human LILRB2 expressed on cells …. Kind of experiment: flow cytometry on 293T-LILRB2 cells, serial dilution, APC anti-human IgG; fit table under the graph.
Excerpt: as §2
The source holds these as a separate data set.

T5 sequence (Q8N423 22-597): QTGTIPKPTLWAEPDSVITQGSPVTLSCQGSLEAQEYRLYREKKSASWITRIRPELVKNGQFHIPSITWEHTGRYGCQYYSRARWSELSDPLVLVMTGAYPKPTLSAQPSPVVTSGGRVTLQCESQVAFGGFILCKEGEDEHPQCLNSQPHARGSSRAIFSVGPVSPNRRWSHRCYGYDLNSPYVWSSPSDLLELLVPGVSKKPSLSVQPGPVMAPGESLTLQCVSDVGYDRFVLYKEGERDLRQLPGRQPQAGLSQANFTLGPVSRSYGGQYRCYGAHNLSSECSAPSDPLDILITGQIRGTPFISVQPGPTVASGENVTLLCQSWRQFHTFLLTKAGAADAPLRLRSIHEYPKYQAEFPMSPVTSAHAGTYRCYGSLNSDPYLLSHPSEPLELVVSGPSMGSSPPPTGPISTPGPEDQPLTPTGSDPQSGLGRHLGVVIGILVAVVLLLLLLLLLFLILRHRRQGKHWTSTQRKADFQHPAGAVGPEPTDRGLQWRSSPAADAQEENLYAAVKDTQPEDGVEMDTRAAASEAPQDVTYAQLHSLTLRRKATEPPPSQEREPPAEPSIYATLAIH
T4 sequence (Q8N423 22-460 limits assumed): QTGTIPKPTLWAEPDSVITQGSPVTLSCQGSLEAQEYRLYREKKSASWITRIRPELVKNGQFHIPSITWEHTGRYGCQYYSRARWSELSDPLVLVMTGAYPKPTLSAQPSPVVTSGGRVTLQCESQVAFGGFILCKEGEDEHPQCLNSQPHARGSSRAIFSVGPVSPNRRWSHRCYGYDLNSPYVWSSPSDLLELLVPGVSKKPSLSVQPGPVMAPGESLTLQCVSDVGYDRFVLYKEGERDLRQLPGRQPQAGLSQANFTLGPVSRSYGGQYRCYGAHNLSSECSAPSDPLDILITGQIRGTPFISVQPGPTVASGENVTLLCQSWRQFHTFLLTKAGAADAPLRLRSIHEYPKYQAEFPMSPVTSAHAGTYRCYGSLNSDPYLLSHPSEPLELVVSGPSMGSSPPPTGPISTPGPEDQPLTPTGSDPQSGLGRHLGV
LILRB2 antigen of the ELISA of Table 5 (format not specified), sequence (Q8N423 22-460 limits assumed): as above
T3 sequence (Q8NHL6 24-650): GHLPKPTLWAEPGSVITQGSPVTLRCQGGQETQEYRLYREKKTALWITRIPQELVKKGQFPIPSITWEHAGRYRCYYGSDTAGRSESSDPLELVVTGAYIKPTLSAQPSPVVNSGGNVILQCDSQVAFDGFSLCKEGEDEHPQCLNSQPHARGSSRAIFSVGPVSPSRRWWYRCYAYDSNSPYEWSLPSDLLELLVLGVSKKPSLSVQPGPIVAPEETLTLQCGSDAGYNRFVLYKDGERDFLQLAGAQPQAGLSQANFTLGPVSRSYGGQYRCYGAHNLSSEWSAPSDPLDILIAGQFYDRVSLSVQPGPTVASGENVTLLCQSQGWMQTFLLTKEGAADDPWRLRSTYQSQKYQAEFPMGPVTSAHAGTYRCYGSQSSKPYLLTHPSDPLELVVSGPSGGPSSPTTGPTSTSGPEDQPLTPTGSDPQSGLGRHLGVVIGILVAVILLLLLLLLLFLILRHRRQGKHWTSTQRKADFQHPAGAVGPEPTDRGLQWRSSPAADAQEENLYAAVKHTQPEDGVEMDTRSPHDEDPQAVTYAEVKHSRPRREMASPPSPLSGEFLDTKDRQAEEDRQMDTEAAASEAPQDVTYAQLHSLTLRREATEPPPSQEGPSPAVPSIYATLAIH
T6 sequence (chain, as listed by the source limits assumed): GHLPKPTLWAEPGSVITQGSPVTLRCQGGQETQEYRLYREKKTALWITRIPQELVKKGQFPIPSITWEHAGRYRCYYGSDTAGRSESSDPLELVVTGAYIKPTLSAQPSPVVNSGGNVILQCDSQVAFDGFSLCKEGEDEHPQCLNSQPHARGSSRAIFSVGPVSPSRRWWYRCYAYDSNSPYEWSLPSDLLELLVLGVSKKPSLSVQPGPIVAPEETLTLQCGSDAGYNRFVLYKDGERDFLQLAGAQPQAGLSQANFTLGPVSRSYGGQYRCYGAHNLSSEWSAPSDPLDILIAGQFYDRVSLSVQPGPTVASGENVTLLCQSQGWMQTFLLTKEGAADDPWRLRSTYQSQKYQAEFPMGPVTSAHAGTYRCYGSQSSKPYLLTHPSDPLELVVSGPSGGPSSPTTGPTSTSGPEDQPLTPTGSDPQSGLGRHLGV

B1: Antibody 10B11 (antibody, V domains shown)
VH: EIQLQQSGPELVKPGASVKVSCKASGNSFTDNNIYWVKQSHGESLEWIGYIDPFNGRTTYNQKFKGKATLTVDKSSSTAFMHLNSLTSGDSAVYYCARGDYFNYWGQGTTLTVSS
VL: EIQMTQTTSSLSASLGDRVTISCSASQGINNYLNWFQQKSDGTVKLLIYYTSSLHSGVPSRFSGSGSGTDYSLTISNLEPEDIAIYYCQQYSNLPFTFGGGTELEIK
notes: Mouse hybridoma mAb purified from ascites
As for B1, the results for the binding result (in the experiment with LILRB3-His; in experiment [1]) were “no binding” and “no binding (tested: 2 µg/ml)”, respectively. The affinity in experiment [2], expressed as Kd, was 0.195 nM.

B2: Antibody 11D9 (antibody, V domains shown)
VH: EIQLQQSGPELVKPGASVKLSCKASGYAFTTYNMYWVKQSPGKSLEWIGYIDPYNGGATYNLKFKGKATLTVDKSSSAAYMHLNGLTSEDSAVYYCAGGDYFNYWGQGTILTVSS
VL: B1 VL with E1D, S24R, G28V, S40P, S53T, I83F, I85T, N93T, F96Y, E103K
notes: as for B1
For the molecule B2, the results for the binding result (in the experiment with LILRB3-His; in experiment [1]) were “no binding” and “no binding (tested: 2 µg/ml)”, respectively. This molecule gave a dissociation constant (Kd) in [2] of 1.43 nM.

B3: Antibody 4A9 (antibody, V domains shown)
VH: EIQLQQSGPELVKPGASVKVSCKASGSSFTDYNMYWVKQIHGKSLDWIGYIDPYNGRTTYNQKFKGKATLTVDKSSSTAFMHLNSLTSEDSAVYYCAGGDYFDYWGHGTSLTVSS
VL: B1 VL with N30S, S40P, S53T, Y71F, E79D, I83F, I85T, F96Y, E103K
notes: as for B1
For the molecule B3, the results for the binding result (with LILRB3-His; in experiment [1]) were “no binding” and “no binding (tested: 2 µg/ml)”, respectively. In experiment [2], this molecule yielded a dissociation constant (Kd) of 0.216 nM.

B4: Antibody 7G4 (antibody, V domains shown)
VH: QVQLKQSGPGLVQPSQSLSITCTVSGFSLATYGVHWVRQSPGKGLEWLGVMWRDGSTDYNAVFMSRLSITKDDSKSQVFFKMNSLQADDTAIYYCAKNPYLYGSSHYYAMDYWGQGTSVTVSS
VL: DIVMTQSPSSLSVSAGEKVTMSCKSSQSLLNSENQKNYLAWYQQKPGQPPKLLIYGASTRESGVPDRFTGSGSGTDFTLTISSVQAEDLAVYYCQNDHIYPFTFGSGTKLEIK
notes: as for B1
Consider B4, for which the binding result in experiment [3] was “no binding (tested: 5 µg/ml)”. For the same molecule, the binding result in experiment [4] is “no binding (tested: 5 µg/ml)”. In addition, in experiment [5], binding was put at a Kd of 1.57 nM, the koff is 0.000677 s⁻¹ and the kon stood at 432000 M⁻¹ s⁻¹. Moreover, in experiment [2], the Kd was found to be 1.53 nM.

B5: Antibody h#2C1 (antibody, V domains shown)
VH: EVQLVESGGGLVQPGGSLRLSCAVSGYSITSGYYWNWVRQAPGKGLEWVAYISYDGNNNYNPSLKNRFTISRDTSKNTFYLQMNSLRAEDTAVYYCAREESTMITTAWFAYWGQGTLVTVSS
VL: DIQMTQSPSSLSASVGDRVTITCRASENIYSNLAWYQQKPGKAPKLLIYGATNLASGVPSRFSGSGSGTDYTLTISSLQPEDFATYYCQHFWDTPYTFGQGTKVEIK
notes: Humanized variant of 11B12
In experiment [6], B5 registered a half-maximal inhibitory concentration (IC50) of 0.56 nM and a Span of 6960 RFU. In addition, in [7], the Bmax worked out at 684000 RFU and binding was put at a Kd of 0.394 nM.

B6: Antibody h#2D1 (antibody, V domains shown)
VH: B5 VH with F79V, A97V
VL: B5 VL
notes: Humanized variant of 11B12
As to B6, in experiment [6], the concentration for half-maximal inhibition (IC50) was 0.613 nM and the Span is 6830 RFU. In experiment [8], the Bmax worked out at 565000 RFU and the Kd worked out at 0.412 nM.

B7: h#2G3 (antibody, V domains shown)
VH: B5 VH with V38I, F79V
VL: B5 VL with M4L
notes: also called Antibody h#2G3
For the molecule B7, in experiment [7], the Bmax came to 683000 RFU and binding was put at a Kd of 0.536 nM.

B8: Antibody h#2D4 (antibody, V domains shown)
VH: B5 VH with A97V
VL: B5 VL
notes: Humanized variant of 11B12
As for B8, in experiment [6], the IC50 came to 0.429 nM and the Span was determined as 7190 RFU. Also, in experiment [8], the Bmax amounted to 563000 RFU and the Kd worked out at 0.386 nM.

B9: Antibody h#2G6 (antibody, V domains shown)
VH: B5 VH with T74A
VL: B5 VL
notes: Humanized variant of 11B12
In experiment [6], B9 registered a half-inhibitory concentration (IC50) of 0.391 nM and a Span of 7660 RFU. In experiment [8], this molecule gave a Bmax of 582000 RFU and a dissociation constant Kd of 0.292 nM.

B10: Antibody 3B5 (antibody, V domains shown)
VH: EVQLQQSGPELVKPGASLKISCKASGYTFTDYNMHWVKQSHGKSLEWIGSIYPYNGDTDYNQKFKSKATLTIDNSSSTAFMDLRSLTSEDSAVYYCARENDYDGPPFPYWGLGTLVTVSA
VL: DIQMTQSSSSFSVSLGDRVTITCKASEDIYNRLAWYQQKSGNAPRLLISGATSLETGVPSRFSGSGSGKDYTLSITSLQTEDVATYYCQQYWSIRTFGGGTKLEIK
notes: as for B1
B10: the binding result is “no binding” with LILRB3-His, “no binding” with LILRB1-His, “no binding (tested: 5 µg/ml)” in experiment [3] and “no binding (tested: 5 µg/ml)” in experiment [4]. This molecule returned a Kd in experiment [2] of 2.93 nM.

B11: chimeric 11B12 (antibody, V domains shown)
VH: DVQLQESGPGLVKPSQSLSLTCSVTGYSITSGYYWNWIRQFPGNKLEWMGYISYDGNNNYNPSLKNRISITRDTSKNQFFLKLNSVTTEDTATYYCAREESTMITTAWFAYWGQGTLVTVSA
VL: DIQMTQSPASLSVSVGETVTITCRASENIYSNLAWYQQKQGKSPQLLVYGATNLADGVPSRFSGSGSGTQYSLKINSLQSEDFGSYFCQHFWDTPYTFGGGTKLEIK
Turning to B11, in [9], the Bmax came out at 582000 RFU and the Kd is 0.171 nM.

B12: Antibody 12D8 (antibody, V domains shown)
VH: QVQLRQSGPGLVQPSQSLSITCTVSGFSLTSYGVHWVRQSPGKGLEWLGVIWSGGITDYNAAFISRLSISKDNSKSQVFFRMNSLQTNDTAIYYCAREIYGNPDYWGQGTTLTVSS
VL: DIVMTQSHKFMSTSVGDRVSITCKASQDVSIAVAWFQQKPGQSPKLLIYSASYRYTGVPDRFSGSGSGTDFTFTISSVQAEDLAVYYCQQHYSTPRTFGGGTKLEIK
notes: as for B1
As to B12, the binding result with LILRB1-His was “no binding”; in experiment [3] it was “no binding (tested: 5 µg/ml)”; in [4] it was “no binding (tested: 5 µg/ml)”. In addition, the values for the Kd in experiment [5] and in [2] were 0.227 nM and 4.37 nM, respectively. The same molecule had an off-rate constant (koff) in [5] of 0.00014 s⁻¹. In experiment [5], this molecule showed a kon of 618000 M⁻¹ s⁻¹.

B13: Antibody 14C11 (antibody, V domains shown)
VH: EVQLQQSGPDLVKPGASVKISCKASGYIFTDFNMHWVKQSHGKSLEWIGYIYPFNGGTGYNQKFENKATLTVDNSSSTAYMEVRSLTSEDSAVYYCARRGGRGHFDYWGQGTTLTVSS
VL: DIQMTQSPASLSASVGETVTVTCRASGNIHNYLAWYQQKQGKSPQLLVYNAKTLADGVPSRFSGSGSGTQFSLKINSLQPEDFGSYYCQHFWNTPFTFGSGTKLEIK
notes: as for B1
As for B13, the binding result is “no binding” with LILRB3-His, “no binding (tested: 5 µg/ml)” in [3] and “no binding (tested: 5 µg/ml)” in [4]. The Kd in experiment [5] is 0.962 nM; in [2], 0.804 nM. The molecule also yielded a koff in experiment [5] of 0.00025 s⁻¹. Moreover, the kon in experiment [5] was found to be 260000 M⁻¹ s⁻¹.
